Source: patent publication US20250289899A1 (Genmab, published 2025)
Each block holds one binder with its values, some of them ahead of it.

Key:
[1] = molecular target: T1, human CD27, full length, on cells (T cells, transfected HEK293F cells, Daudi cells, NFκB-luc2/CD27 Jurkat … (human, UniProt P26842 20-240)); assay: flow cytometry on T cells in human PBMC (endogenous CD27), PE goat anti-human IgG, median MFI PE
T1 construct: Residues 1-19 are stated to be the signal peptide; also called TNFRSF7
T1 sequence: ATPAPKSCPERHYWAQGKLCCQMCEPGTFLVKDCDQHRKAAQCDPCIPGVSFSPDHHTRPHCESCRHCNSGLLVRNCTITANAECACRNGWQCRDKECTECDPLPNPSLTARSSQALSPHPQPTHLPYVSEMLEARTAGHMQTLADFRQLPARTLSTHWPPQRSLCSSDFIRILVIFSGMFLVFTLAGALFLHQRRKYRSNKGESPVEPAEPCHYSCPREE
Method: (§1) Non-binding control antibody IgG1-b12-FEAR was used as negative control antibody. *N.B. IgG1-CD27-A, -B, -C, -D and -E carried mutations F405L-L234F-L235E-D265A in the IgG Fc domain, which are functionally irrelevant in the context of this experiment.
(§2) Cells were seeded in 96-Wells plates (100,000 cells per well; Greiner Bio-one, Cat #650180) for sequential incubations, with washing steps in between with FACS buffer, consisting of PBS (Lonza, Cat #BE17-517Q)+1% BSA (Roche, Cat #10735086001)+0.02% Sodium Azide (Bio-World, Cat #41920044-3). The following incubations were applied: antibody concentration series (0.0001-10 μg/mL final concentration) for 30 min at 4° C.; live/dead marker FVS510 (BD, Cat #564406, diluted 1:1,000 in PBS) for 20 min at RT; PE-labeled polyclonal goat anti-human IgG (Jackson Immuno Research, Cat #109-116-098, diluted 1:500) for 30 min at 4° C.; and anti-CD3 antibody for T-cell identification (anti-human CD3: BD, Cat #555335, diluted 1:10; anti-cyno CD3: Miltenyi, Cat #130-091-998, diluted 1:10) for 30 min at 4° C. All samples were analyzed on a FACSCelesta flow cytometer (BD) and FlowJo software. Data were processed and visualized using GraphPad Prism.

[2] = molecular target: T1, human CD27, full length, on cells (T …); assay: flow cytometry on HEK293F cells transfected with human CD27, PE goat anti-human IgG, median MFI PE
[3] = molecular target: T2, cynomolgus monkey CD27, full length, on cells (cynomolgus T cells, transfected HEK293F cells) (cynomolgus monkey (Macaca fascicularis), UniProt P26842 20-260 (human entry)); assay: flow cytometry on HEK293F cells transfected with cynomolgus CD27, PE goat anti-human IgG, median MFI PE
T2 construct: also called cyno CD27
T2 chain: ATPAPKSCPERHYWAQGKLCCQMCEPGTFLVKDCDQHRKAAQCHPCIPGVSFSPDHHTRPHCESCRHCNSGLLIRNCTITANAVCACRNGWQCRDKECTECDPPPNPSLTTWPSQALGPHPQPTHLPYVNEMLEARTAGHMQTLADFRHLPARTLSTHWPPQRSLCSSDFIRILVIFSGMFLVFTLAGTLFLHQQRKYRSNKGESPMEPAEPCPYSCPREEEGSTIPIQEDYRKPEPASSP
Method: as §1, §2

[4] = molecular target: T2, cynomolgus monkey CD27, full length, on …; assay: flow cytometry on T cells in cynomolgus PBMC (endogenous CD27), PE goat anti-human IgG, median MFI PE
Method: as §1, §2

[5] = molecular target: T3, human C1q (from normal human serum) (human, UniProt P02745 23-245; P02746 28-253; P02747 29-245); assay: flow cytometry, C1q (20% normal human serum) on human T cells pre-incubated with the antibody, FITC rabbit anti-human C1q, median MFI FITC; antibody concentration varied
T3 construct: 20% normal human serum was the source of C1q
Method: The P329R mutation was previously described to reduce interaction of IgG1 antibodies with C1q and FcgR (Overdijk et al, Molecular Cancer Therapeutics 2020). The effect of the P329R mutation on C1q binding of IgG1-CD27-A comprising the E345R mutation was tested in cellular C1q binding assays in vitro using human healthy donor T cells. Anti-HIV gp120 antibody IgG1-b12-F405L was used as non-binding isotype control antibody (ctrl). […] T cells (2×10⁶ cells/well) were pre-incubated in polystyrene 96-well round-bottom plates with antibody dilution series (8× five-fold dilution starting at 15 μg/mL final assay concentration) for 15 min at 37° C. to allow the antibodies to bind to the T cells. Then, cells were cooled on ice, supplemented with NHS as a source of human C1q (20% NHS final assay concentration) and incubated on ice for 45 min. Cells were subsequently incubated on ice with FITC-labeled Rabbit anti-human C1q antibody (DAKO, Cat #F0254; 20 μg/mL) for 30 min and resuspended in FACS buffer with TO-PRO-3 (ThermoFisher, Cat #T3605; 1:5,000 dilution). C1q binding was determined by flow cytometry measuring the FITC signal on live cells.

T3 sequence (P02745 23-245 limits assumed, chain 1 of 3): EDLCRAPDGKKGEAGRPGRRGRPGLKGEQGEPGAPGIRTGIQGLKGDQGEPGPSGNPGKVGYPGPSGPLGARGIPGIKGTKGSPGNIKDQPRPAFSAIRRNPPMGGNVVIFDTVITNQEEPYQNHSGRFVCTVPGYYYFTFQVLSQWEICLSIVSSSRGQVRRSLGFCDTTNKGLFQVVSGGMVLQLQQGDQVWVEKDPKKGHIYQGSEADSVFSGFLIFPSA
T3 sequence (P02746 28-253 limits assumed, chain 2 of 3): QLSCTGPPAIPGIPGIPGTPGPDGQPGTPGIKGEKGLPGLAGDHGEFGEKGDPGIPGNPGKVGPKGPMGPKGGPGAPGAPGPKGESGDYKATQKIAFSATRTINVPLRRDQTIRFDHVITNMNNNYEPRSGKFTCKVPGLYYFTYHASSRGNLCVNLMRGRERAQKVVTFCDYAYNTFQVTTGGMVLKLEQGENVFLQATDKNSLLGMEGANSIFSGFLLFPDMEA
T3 sequence (P02747 29-245 limits assumed, chain 3 of 3): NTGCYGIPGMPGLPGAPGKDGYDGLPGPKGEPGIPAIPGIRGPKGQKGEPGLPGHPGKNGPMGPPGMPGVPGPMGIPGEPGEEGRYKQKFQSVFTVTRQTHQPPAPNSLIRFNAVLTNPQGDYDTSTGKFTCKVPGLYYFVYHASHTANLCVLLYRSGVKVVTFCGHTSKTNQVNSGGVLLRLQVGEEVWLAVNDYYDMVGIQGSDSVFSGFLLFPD

EC50 (read off the curve) [1]: ~0.04 µg/mL
EC50 (read off the curve) [2]: ~0.1 µg/mL
EC50 (read off the curve) [3]: ~0.06 µg/mL
EC50 (read off the curve) [4]: ~0.04 µg/mL
B1: IgG1-CD27-A carrying F405L-L234F-L235E-D265A in the IgG Fc domain (antibody)
heavy: QVQLMQSGSELKKPGASVKVSCRASGYTFTTYAMNWVRQAPGQGPEWMGWINTNTGNPTYAQGFTGRFVFSLDTTVTTTYLQISSLKAEDTAVYFCAREAGSFDYWGQGTLVTVSSASTKGPSVFPLAPSSKSTSGGTAALGCLVKDYFPEPVTVSWNSGALTSGVHTFPAVLQSSGLYSLSSVVTVPSSSLGTQTYICNVNHKPSNTKVDKRVEPKSCDKTHTCPPCPAPEFEGGPSVFLFPPKPKDTLMISRTPEVTCVVVAVSHEDPEVKFNWYVDGVEVHNAKTKPREEQYNSTYRVVSVLTVLHQDWLNGKEYKCKVSNKALPAPIEKTISKAKGQPREPQVYTLPPSREEMTKNQVSLTCLVKGFYPSDIAVEWESNGQPENNYKTTPPVLDSDGSFLLYSKLTVDKSRWQQGNVFSCSVMHEALHNHYTQKSLSLSPGK
light: QSALTQPASVSGSPGQSITISCTGTSSDVYYYNYVSWYQQHPGRAPKLVIYDVSNRPSGVSNRFSGSKSGNTASLTISGLRAEDEADYYCSSYTVNRVWVFGGGTKLTVLGQPKAAPSVTLFPPSSEELQANKATLVCLISDFYPGAVTVAWKADSSPVKAGVETTTPSKQSNNKYAASSYLSLTPEQWKSHRSYSCQVTHEGSTVEKTVAPTECS

binding result [5]: no binding (tested: 15 µg/mL)
B2: IgG1-CD27-A (wild-type IgG1 Fc) (antibody)
heavy: not shown
light: B1 light
notes: also called WT IgG1-CD27-A; IgG-CD27-A

EC50 (read off the curve) [5]: ~0.03 µg/mL
B3: IgG1-CD27-A-E430G (antibody)
heavy: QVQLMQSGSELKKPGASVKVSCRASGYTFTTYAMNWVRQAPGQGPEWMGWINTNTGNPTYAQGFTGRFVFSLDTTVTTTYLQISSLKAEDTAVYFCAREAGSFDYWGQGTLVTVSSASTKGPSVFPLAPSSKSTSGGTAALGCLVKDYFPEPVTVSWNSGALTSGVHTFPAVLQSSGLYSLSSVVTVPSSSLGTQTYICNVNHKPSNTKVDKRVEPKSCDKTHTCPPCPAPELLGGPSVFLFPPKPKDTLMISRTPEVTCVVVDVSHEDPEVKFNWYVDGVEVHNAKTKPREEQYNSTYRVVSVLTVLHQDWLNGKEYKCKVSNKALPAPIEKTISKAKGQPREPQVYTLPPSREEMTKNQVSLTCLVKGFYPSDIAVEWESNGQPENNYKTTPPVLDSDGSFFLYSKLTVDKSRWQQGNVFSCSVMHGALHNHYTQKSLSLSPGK
light: B1 light

binding result [5]: binds
B4: IgG1-CD27-A-E345R (antibody)
heavy: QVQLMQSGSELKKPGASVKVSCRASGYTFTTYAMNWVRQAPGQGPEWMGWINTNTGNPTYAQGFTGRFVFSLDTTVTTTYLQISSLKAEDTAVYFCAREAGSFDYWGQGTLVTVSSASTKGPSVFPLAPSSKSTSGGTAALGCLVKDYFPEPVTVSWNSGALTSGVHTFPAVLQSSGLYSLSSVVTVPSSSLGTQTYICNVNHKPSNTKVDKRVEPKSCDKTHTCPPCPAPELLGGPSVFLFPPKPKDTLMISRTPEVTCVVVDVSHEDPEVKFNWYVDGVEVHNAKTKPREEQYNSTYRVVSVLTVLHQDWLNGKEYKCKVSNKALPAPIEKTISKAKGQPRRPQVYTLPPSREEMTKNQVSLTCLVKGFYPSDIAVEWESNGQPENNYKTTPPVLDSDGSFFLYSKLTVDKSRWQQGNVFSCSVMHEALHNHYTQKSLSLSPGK
light: B1 light
notes: also called IgG-CD27-A-E345R
